Experimental data from the supplement of paper PMC12764529.
± gives the half width of the 95% confidence interval.

Key:
[1] = folding stability dG unfold from trypsin proteolysis; higher = more stable
Method in brief: (§1)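 Sequencing followed digestion of designed mini-proteins with trypsin and chymotrypsin, each at 11 concentrations in threefold dilutions together with a no-protease condition. The mini-proteins were under 80 residues, had no cysteine, sat in a PA-tagged cDNA display construct, and were kept only if AlphaFold2 dimer inter-PAE was above 15. From the counts, Bayesian fitting gave K50, and unfolding free energy was derived against a sequence-predicted unfolded-state K50 and a shared folded-state K50, per protease or combined.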

[2] = folding stability dG unfold (combined trypsin and chymotrypsin); higher = more stable
Method in brief: as §1

[3] = folding stability dG unfold from chymotrypsin proteolysis; higher = more stable
Method in brief: as §1

Sequence | folding stability dG unfold [1] | folding stability dG unfold [2] | folding stability dG unfold [3]
SAGGMTITFPEGITITFSPDNTATVTINFPGNPLTLTLNATTLEEVIETAKKAAEEFRKPPPKLVLKVSAGG [r13_896_JUSTAS] | 4.71 ± 0.146 kJ/mol | 6.7 ± 0.402 kJ/mol | 7.2 ± 0.418 kJ/mol
SAGGMTITIDPTPDGVRIKIYDDGKPREIPVAPEVLELIQQNPTLEEIIRELFPPGHPIEKIEIEPWSAGGS [r16_567_TrROS] | 6.56 ± 0.297 kJ/mol | 4.81 ± 0.92 kJ/mol | 4.29 ± 0.711 kJ/mol
SAGGMTITVTKKTKPEDVEKLVEEIKEELEKKGYNVKKIEVTYKVVKDPNSSNEIVELTLTIEVEKPSAGGS [r8_475_JUSTAS] | 19 ± 3.72 kJ/mol | 22.1 ± 1.3 kJ/mol | 21 ± 0.879 kJ/mol
SAGGMTITVTVPEVPPDRTVTVEVYKPGEKLGSYSGTLNQPKNVTYTFTVPPATITINYSDGKTYPIPLSAG [r5_646_JUSTAS] | 9.31 ± 0.795 kJ/mol | 12.6 ± 1.05 kJ/mol | 14.2 ± 0.159 kJ/mol
SAGGMTIVEVEYTAYDLNSNKSVVVKAYKDPSTGKMTITSSDGVEGEFDPVTKTISLPRGSKSVTLGSAGGS [r16_743_JUSTAS] | 1.11 ± 0.31 kJ/mol | 2.18 ± 0.339 kJ/mol | 2.61 ± 0.46 kJ/mol
SAGGMTKIEVEYYPEKITVTVTTDNPSENPLDIIKKKTGFKIEGGEVLYPSPNVVVVKLKVDPKDLKKSAGG [r13_498_JUSTAS] | 1.85 ± 0.46 kJ/mol | 3.34 ± 1.13 kJ/mol | 4.49 ± 0.46 kJ/mol
SAGGMTKTESEVFFEPDGSSSSAKVTITVDDGPLTANVTISPDSVTTTINYPDGSTVTTTTSVSPAASAGGS [r16_108_JUSTAS] | 3.94 ± 0.339 kJ/mol | 5.3 ± 0.544 kJ/mol | 6.21 ± 0.218 kJ/mol
SAGGMTLEERAEALAAERGWTVTSIELVEEKPGEVKFRVTFRLPDGSLETVEITVKRPPPVPPDNLLSAGGS [r8_309_JUSTAS] | 15.6 ± 0.46 kJ/mol | 15.7 ± 0.238 kJ/mol | 15.59 ± 0.105 kJ/mol
SAGGMTLEFELEAEPLEEVEKRVRELLRELGFPESVEITIEPKKPDDGSVIYPVKVTLNDPALEARLSAGGS [r8_85_JUSTAS] | 4.36 ± 0.159 kJ/mol | 4.62 ± 0.406 kJ/mol | 5.09 ± 0.151 kJ/mol
SAGGMTLEITITFPGPEMLEEAKKIIDELGIELVNPTPNSLTVKAKGPEEVAKIKEEAKKLGFTVTGSAGGS [r16_88_JUSTAS] | 12.2 ± 0.879 kJ/mol | 13.1 ± 0.586 kJ/mol | 13.3 ± 0.36 kJ/mol
SAGGMTLLKVRIYIPSEPKPIEVELFTDGDPEKAEEAVRELVEELGYPDAKVEVELLEVDPSDPRFLGSAGG [r13_682_TrMRF] | 9.96 ± 0.172 kJ/mol | 14.9 ± 0.213 kJ/mol | 16.67 ± 0.1 kJ/mol
SAGGMTLRITTADGRVIEIEADSLEDALAALRTLLGLKPGDVLTVEVVVEVDGEKKTFTLTIVLPPEPSAGG [r13_145_TrROS_Hall] | 20.7 ± 0.586 kJ/mol | > 25.1 kJ/mol | 25.4 ± 0.372 kJ/mol
SAGGMTLVIKVTNKDGSTLTITFDAETNTITITFPDGTTRTITVPADTTIEELIAALPPDAKVEILPASAGG [r13_696_TrROS_Hall] | 14.3 ± 0.305 kJ/mol | 19 ± 0.418 kJ/mol | 19.9 ± 0.46 kJ/mol
SAGGMTRKLTFLGDIDKPVGLDGDIEIRPNPETGGFTIRVPPGVRIEAEVERLTDPPLALVTVTFLESAGGS [r16_122_TrMRF] | -0.494 ± 0.343 kJ/mol | 2.99 ± 0.226 kJ/mol | 4.31 ± 0.31 kJ/mol
SAGGMTTFELYDPVNNKKYTLTYDPATNTLTLYNPENGEILETKPVPNLQSVEAPIVPGGIEVGVVINSAGG [r13_720_JUSTAS] | 8.81 ± 0.293 kJ/mol | 10.5 ± 0.356 kJ/mol | 11.5 ± 0.259 kJ/mol
SAGGMTTTTLTLEEFLEKYPEEVVKERTEKPLGPGANLTIVTLTAPGTTITVTSNPAQPDIWTVTTVTSAGG [r13_942_JUSTAS] | 3.14 ± 0.0753 kJ/mol | 4.04 ± 0.213 kJ/mol | 4.63 ± 0.205 kJ/mol
SAGGMTTTVELELEDPVNLGVPVRVEATVTYEKDPNGNPVAKAEITTTYPDGKEEKTTIPVSELKGLGSAGG [r13_787_JUSTAS] | 1.23 ± 0.247 kJ/mol | -0.016 ± 0.711 kJ/mol | -2.52 ± 0.544 kJ/mol
SAGGMTVETTTVTLAAGTTYTVTTPSDSTVEVVDTETGVVRRFDVPASTDFSVTLPADRTYDITVVRRSAGG [r19_78_JUSTAS] | 3.319 ± 0.0222 kJ/mol | 4.82 ± 0.134 kJ/mol | 5.64 ± 0.092 kJ/mol
SAGGMTVKITIEVEEPGKTAEELAEELARELEKAGFKVEVVSVEVEEVDGRLIVTIEVKVDSEEALKASAGG [r13_979_TrROS_Hall] | 9.88 ± 0.23 kJ/mol | 10.5 ± 0.243 kJ/mol | 10.7 ± 0.322 kJ/mol
SAGGMTVPIFVPVDSPEQVEEILEELATPDVKEIVPATLPPLPPPGDKMVVPINITIFPGTGKAVIDASAGG [r13_174_TrMRF] | -4.5 ± 0.502 kJ/mol | 2.06 ± 0.36 kJ/mol | 4.15 ± 0.0586 kJ/mol
SAGGMTVTIPYKGSPELAERVVEAIQEAFPEVRVEEVVVEPGDPTNITITVRFDNDVPASAIAEVLSSAGGS [r16_180_JUSTAS] | 9.37 ± 0.172 kJ/mol | 7.73 ± 0.297 kJ/mol | 6.48 ± 0.146 kJ/mol

Sequence | folding stability dG unfold [1] | folding stability dG unfold [2] | folding stability dG unfold [3]
SAGGMTVTVKVTEIKKIGDKYEITLKNPDGTPKTVTIDDPEVVKKITPDSEVTVTVNPDGSYTITLESAGGS [r16_2_JUSTAS] | 15.6 ± 1.17 kJ/mol | 16.1 ± 1.21 kJ/mol | 14.5 ± 0.962 kJ/mol
SAGGMVEELDAKDADKIIVGADPDEEVFVLVEVYDDGELLEVVELEPGEEIEIPKDYKVKIVTVPKDLSAGG [r13_978_TrMRF] | 0.499 ± 0.339 kJ/mol | -1.23 ± 2.18 kJ/mol | -0.346 ± 2.64 kJ/mol
SAGGMVEEVKELAKELGFDVEIELTSVYGEKGYVPYKVTFPNGKTYYITFKGSPDEMKKKLRDLLEKSAGGS [r16_153_TrMRF] | 9.2 ± 0.243 kJ/mol | 11.8 ± 0.272 kJ/mol | 12.5 ± 0.142 kJ/mol
SAGGMVIIIPSPDNTVLIIEIEGDKAKIIIINPEDGSAVIIELPIEPNGDGSFILKITSIEVLEDADISAGG [r13_556_TrMRF] | 12.4 ± 0.837 kJ/mol | 13.7 ± 1.09 kJ/mol | 14 ± 0.544 kJ/mol
SAGGMVIKVTDAEEAIERVIELVKSLGPEAVIKEITVTNTGTVVKVEPGKKGTVSPDSTITVNIEKGSAGGS [r16_267_JUSTAS] | -0.163 ± 0.276 kJ/mol | 2.77 ± 0.586 kJ/mol | 3.92 ± 0.314 kJ/mol
SAGGMVIPPEATLTGSTTSWVTTSDGRKLLVTTPVYRFPGNTTVVVSTVTDPTSAASTVTVSTEPALSAGGS [r16_370_JUSTAS] | 2.08 ± 0.289 kJ/mol | 1.56 ± 0.356 kJ/mol | 0.447 ± 0.502 kJ/mol
SAGGMVKLTITITTENETTTYPRVVPEEELEEVKKEAEELAKKLGADPKTVTVSKVERLKEPGGVPVSAGGS [r16_650_JUSTAS] | 2.9 ± 0.121 kJ/mol | 3.58 ± 0.255 kJ/mol | 3.77 ± 0.138 kJ/mol
SAGGMVLFRIRFRTGPDGIVRLDPELLEQAEGADIDEDDPRVALILAEPEFLEKLSPELLEEAEILPSAGGS [r16_328_TrMRF] | 2.54 ± 0.418 kJ/mol | 2.86 ± 0.197 kJ/mol | 2.53 ± 0.502 kJ/mol
SAGGMVLKPVKLNGNENLKTTADGAEVEYTSDGKGNVTITVRYEPNLTVEALVNGSTVTLVKTEEGYLSAGG [r13_92_JUSTAS] | 3.53 ± 0.377 kJ/mol | 3.63 ± 0.628 kJ/mol | 3.92 ± 0.46 kJ/mol
SAGGMVLVERDGDRLVLLIPFPADEPPTPEEVEAEARAILRELGPDVRIRSVHRLPDGGYLVEAEVDSAGGS [r8_103_TrMRF] | 13.3 ± 0.272 kJ/mol | 14.9 ± 0.172 kJ/mol | 15.4 ± 0.159 kJ/mol
SAGGMVLVRFDSLEEAREHAELLEELGYEVELLPTEDYVLLLVRPLPLPPPTPEELAEALRNPGSALASAGG [r13_8_TrMRF] | 9.76 ± 0.259 kJ/mol | 10.6 ± 0.276 kJ/mol | 11.18 ± 0.0586 kJ/mol
SAGGMVTKTYEFEGENGGKILIEVKEDPDKPVVTVKFYRPDGKPLFEAEIEADSIEDAIQQAKDLLASAGGS [r16_158_TrMRF] | 14.4 ± 0.502 kJ/mol | 15.3 ± 0.544 kJ/mol | 15.7 ± 0.46 kJ/mol
SAGGMVVRIKVKIKNPETGEVIEVEALVEVDEDGNVTITLPNGKKITLPKGAKVEIVDVEELPPEDLSAGGS [r16_223_TrROS_Hall] | 15.6 ± 0.46 kJ/mol | 14.7 ± 0.389 kJ/mol | 13.1 ± 0.314 kJ/mol
SAGGMVYVVRLRDEDGTEYTALVEEFDGIYRVRLFDEDGELVEEREFESVEEAIDALLAEGYEVEVYPSAGG [r13_315_TrMRF] | 16.7 ± 0.331 kJ/mol | 19.5 ± 0.293 kJ/mol | 20.42 ± 0.146 kJ/mol
SAGGMYRVKVGDDERLIDTDPENFKTLEEAVKKVAEKIKEEYPNRPELTITVEAEDGTPLATVTITLSSAGG [r13_257_JUSTAS] | 3.18 ± 0.502 kJ/mol | 3.74 ± 1.21 kJ/mol | 2.57 ± 0.795 kJ/mol
SAGGNDDDQKPKMVRVKIKYDNPDGEKYKIDEIWVMPPPFIMIRMPGNGQEIFIPPDQIKEIEIEPVSAGGS [r8_410_TrROS] | -0.624 ± 1.17 kJ/mol | 3.45 ± 1.26 kJ/mol | 4.57 ± 0.339 kJ/mol
SAGGNDDNWRVIEFTFSPGNIKPEQIRSLLENAGADRITDVEVQRTPNSYTVTFYFPNGKPVEITIPSAGGS [r8_86_TrROS] | 6.91 ± 0.159 kJ/mol | 8.93 ± 0.544 kJ/mol | 9.93 ± 0.418 kJ/mol
SAGGNFEIWRHPENGILWIEFRIPAGEPLEIPLKFKAPNGKPIKITKFHIWPMNDWWYIKFIIKIPPSAGGS [r16_499_TrROS] | 13.2 ± 0.502 kJ/mol | 12.5 ± 1.05 kJ/mol | 11.9 ± 0.251 kJ/mol
SAGGNIEVDNDMIEIPFPGGFTIMIRLPPDKGKVTVHIERDPNNPMFREFAKEIADQLPGLPVEVHPWSAGG [r13_34_TrROS] | 4.17 ± 0.46 kJ/mol | 3.15 ± 0.335 kJ/mol | 1.73 ± 0.586 kJ/mol
SAGGNIKIEDIEIMKPMKDPDGNPDKPMYMVSIRIEHEYKYPDGPMKHKHEIMIMMPPNDPDEALDELSAGG [r13_149_TrROS] | 3.75 ± 0.339 kJ/mol | 3.67 ± 0.46 kJ/mol | 3.17 ± 0.172 kJ/mol
SAGGNIRIWFPGREIPIGGTVEDIKANIRKWLGRPIPEELIEQIDKGKTVSEIVDWLRKRGFPIRIWSAGGS [r16_601_TrROS] | 7.45 ± 0.13 kJ/mol | 7.82 ± 0.46 kJ/mol | 8.11 ± 0.669 kJ/mol
